The target in this experiment is T4Lnano fusion protein (CBP - ER/K motif - T4L - linker - CaM). As to the kind of experiment: crystal structure.

From paper doi:10.1101/2020.09.29.318410 come the findings set out here.

What is called stoichiometry N is a count of units in the complex or per binding partner.

On to “T4Lnano fusion protein (CBP - ER/K motif - T4L - linker - CaM)”, for which the stoichiometry N is 2.
